Literature values in publication PMC3082853.

Target: FepA (Escherichia coli) (UniProt P05825)
UniProt P05825, sequence (P05825 23-746): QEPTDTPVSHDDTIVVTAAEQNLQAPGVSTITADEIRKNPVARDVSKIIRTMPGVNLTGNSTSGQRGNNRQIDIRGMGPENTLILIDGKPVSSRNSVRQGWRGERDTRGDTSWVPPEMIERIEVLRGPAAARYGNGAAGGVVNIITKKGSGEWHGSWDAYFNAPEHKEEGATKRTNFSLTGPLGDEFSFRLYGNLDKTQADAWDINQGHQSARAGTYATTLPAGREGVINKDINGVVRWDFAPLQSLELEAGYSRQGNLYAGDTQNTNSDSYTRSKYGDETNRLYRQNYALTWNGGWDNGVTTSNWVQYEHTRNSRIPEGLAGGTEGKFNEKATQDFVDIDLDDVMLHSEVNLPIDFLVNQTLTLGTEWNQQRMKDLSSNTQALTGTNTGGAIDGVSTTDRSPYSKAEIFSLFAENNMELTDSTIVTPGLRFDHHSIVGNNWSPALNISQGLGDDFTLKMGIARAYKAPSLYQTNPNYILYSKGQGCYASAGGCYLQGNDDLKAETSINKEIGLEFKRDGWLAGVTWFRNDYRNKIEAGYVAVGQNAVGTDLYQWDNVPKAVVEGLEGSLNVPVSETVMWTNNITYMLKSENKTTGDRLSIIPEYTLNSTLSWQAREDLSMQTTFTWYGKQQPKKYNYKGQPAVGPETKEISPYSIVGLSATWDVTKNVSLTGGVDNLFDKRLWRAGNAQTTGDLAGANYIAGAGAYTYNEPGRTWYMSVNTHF

Which Kd does the source give for colicin B (from UniProt P05819) here?
The Kd was 185 nM.
